Values quoted from earlier work in PMC9898751 (The Journal of Biological Chemistry, 2022).

Key:
[1] = phosphorylation by protein kinase A; ref [29]
peptide substrates = conditions: mass spectrometry– and fluorescence-based demethylase assays on peptide substrates; ref [28]
[2] = tested on: histone peptide bearing H3K4me3 and H3K9me2 in cis; conditions: in contrast to PHF8; ref [28]
H3K9me2 = conditions: H3K4me3 present in cis; ref [35]
H3K27me2 = conditions: H3K4me3 present in cis; ref [35]

Molecule	activity before phosphorylation [1]	enzymatic activity in vitro (peptide substrates)	activity on single histone peptide bearing H3K4me3 and H3K9me2 in cis [2]	activity on H3K9me2 with H3K4me3 in cis (H3K9me2)	activity toward H3K27me2 with H3K4me3 in cis (H3K27me2)
PHF2: KDM7 family Jumonji demethylase (protein, UniProt O75151 1-1096, looked up) Lysine-specific demethylase …: MATVPVYCVCRLPYDVTRFMIECDACKDWFHGSCVGVEEEEAPDIDIYHCPNCEKTHGKSTLKKKRTWHKHGPGQAPDVKPVQNGSQLFIKELRSRTFPSAEDVVARVPGSQLTLGYMEEHGFTEPILVPKKDGLGLAVPAPTFYVSDVENYVGPERSVDVTDVTKQKDCKMKLKEFVDYYYSTNRKRVLNVTNLEFSDTRMSSFVEPPDIVKKLSWVENYWPDDALLAKPKVTKYCLICVKDSYTDFHIDSGGASAWYHVLKGEKTFYLIRPASANISLYERWRSASNHSEMFFADQVDKCYKCIVKQGQTLFIPSGWIYATLTPVDCLAFAGHFLHSLSVEMQMRAYEVERRLKLGSLTQFPNFETACWYMGKHLLEAFKGSHKSGKQLPPHLVQGAKILNGAFRSWTKKQALAEHEDELPEHFKPSQLIKDLAKEIRLSENASKAVRPEVNTVASSDEVCDGDREKEEPPSPIEATPPQSLLEKVSKKKTPKTVKMPKPSKIPKPPKPPKPPRPPKTLKLKDGGKKKGKKSRESASPTIPNLDLLEAHTKEALTKMEPPKKGKATKSVLSVPNKDVVHMQNDVERLEIREQTKSKSEAKWKYKNSKPDSLLKMEEEQKLEKSPLAGNKDNKFSFSFSNKKLLGSKALRPPTSPGVFGALQNFKEDKPKPVRDEYEYVSDDGELKIDEFPIRRKKNAPKRDLSFLLDKKAVLPTPVTKPKLDSAAYKSDDSSDEGSLHIDTDTKPGRNARVKKESGSSAAGILDLLQASEEVGALEYNPSSQPPASPSTQEAIQGMLSMANLQASDSCLQTTWGAGQAKGSSLAAHGARKNGGGSGKSAGKRLLKRAAKNSVDLDDYEEEQDHLDACFKDSDYVYPSLESDEDNPIFKSRSKKRKGSDDAPYSPTARVGPSVPRQDRPVREGTRVASIETGLAAAAAKLSQQEEQKSKKKKSAKRKLTPNTTSPSTSTSISAGTTSTSTTPASTTPASTTPASTSTASSQASQEGSSPEPPPESHSSSLADHEYTAAGTFTGAQAGRTSQPMAPGVFLTQRRPSASSPNNNTAAKGKRTKKGMATAKQRLGKILKIHRNGKLLL	remains inactive until it is phosphorylated by protein kinase A	enzymatically inactive in vitro	cannot act on a single histone peptide bearing H3K4me3 and H3K9me2 in cis		
KIAA1718: KDM7 family Jumonji demethylase (protein, UniProt Q6ZMT4 1-941, looked up) Lysine-specific demethylase 7A: MAGAAAAVAAGAAAGAAAAAVSVAAPGRASAPPPPPPVYCVCRQPYDVNRFMIECDICKDWFHGSCVGVEEHHAVDIDLYHCPNCAVLHGSSLMKKRRNWHRHDYTEIDDGSKPVQAGTRTFIKELRSRVFPSADEIIIKMHGSQLTQRYLEKHGFDVPIMVPKLDDLGLRLPSPTFSVMDVERYVGGDKVIDVIDVARQADSKMTLHNYVKYFMNPNRPKVLNVISLEFSDTKMSELVEVPDIAKKLSWVENYWPDDSVFPKPFVQKYCLMGVQDSYTDFHIDFGGTSVWYHVLWGEKIFYLIKPTDENLARYESWSSSVTQSEVFFGDKVDKCYKCVVKQGHTLFVPTGWIHAVLTSQDCMAFGGNFLHNLNIGMQLRCYEMEKRLKTPDLFKFPFFEAICWFVAKNLLETLKELREDGFQPQTYLVQGVKALHTALKLWMKKELVSEHAFEIPDNVRPGHLIKELSKVIRAIEEENGKPVKSQGIPIVCPVSRSSNEATSPYHSRRKMRKLRDHNVRTPSNLDILELHTREVLKRLEMCPWEEDILSSKLNGKFNKHLQPSSTVPEWRAKDNDLRLLLTNGRIIKDERQPFADQSLYTADSENEEDKRRTKKAKMKIEESSGVEGVEHEESQKPLNGFFTRVKSELRSRSSGYSDISESEDSGPECTALKSIFTTEESESSGDEKKQEITSNFKEESNVMRNFLQKSQKPSRSEIPIKRECPTSTSTEEEAIQGMLSMAGLHYSTCLQRQIQSTDCSGERNSLQDPSSCHGSNHEVRQLYRYDKPVECGYHVKTEDPDLRTSSWIKQFDTSRFHPQDLSRSQKCIRKEGSSEISQRVQSRNYVDSSGSSLQNGKYMQNSNLTSGACQISNGSLSPERPVGETSFSVPLHPTKRPASNPPPISNQATKGKRPKKGMATAKQRLGKILKLNRNGHARFFV				inactive on H3K9me2 when H3K4me3 is present in cis	more selective toward H3K27me2
